Laboratory results taken from patent US20260274985A1 (MYTHIC THERAPEUTICS, published 2026).

Each binder was assayed against T1, Human TROP2 Protein, His Tag (Acro Biosystems) (human, UniProt P09758 27-274) (assay: BLI (Octet)).
T1 construct: not shown: His tag
T1 sequence (looked up): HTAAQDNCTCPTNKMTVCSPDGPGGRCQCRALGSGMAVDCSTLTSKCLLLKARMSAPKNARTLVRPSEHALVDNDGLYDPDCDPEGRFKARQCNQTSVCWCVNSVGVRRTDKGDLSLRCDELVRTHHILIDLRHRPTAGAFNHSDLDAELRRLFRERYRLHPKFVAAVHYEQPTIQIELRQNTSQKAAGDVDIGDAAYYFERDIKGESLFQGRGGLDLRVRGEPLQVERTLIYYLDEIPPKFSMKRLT

Binder | binding result
MYT13295 (antibody, V domains shown, Full-length IgG from Expi293 supernatant; also called hu7E6SVG heavy chain and light chain pairing variant) VH: QVQLQESGPGLVKPSETLSLTCTVSGGSISSYGVHWIRQPPGKGLEWIGVIWTSGVTDYNSALMGRVTISVDTSKNQFSLKLSSVTAADTAVYYCARDGDYDRYTHDYWGQGTLVTVSS VL: DIVMTQSPDSLAVSLGERATINCRASKSVSTSGYSYMHWYQQKPGQPPKLLIYLASNLESGVPDRFSGSGSGTDFTLTISSLQAEDVAVYYCQASRELPYTFGQGTKLEIK | no binding (tested: 50 nM)
MYT13305 (antibody, V domains shown, Full-length IgG from Expi293 supernatant; also called hu7E6SVG heavy chain and light chain pairing variant) VH: QVQLQESGPGLVKPSETLSLTCTVSGGSISSYGVHWIRQPPGKGLEWIGVIWTSGVTDYNSALMGRVTISVDTSKNQFSLKLSSVTAADTAVYYCARDGDYDRYTHDYWGQGTLVTVSS VL: DIVMTQSPDSLAVSLGERATINCRASKSVSTSGYSYMHWYQQKPGQPPKLLIYLASNLESGVPDRFSGSGSGTDFTLTISSLQAEDVAVYYCQHSRELPYHFGQGTKLEIK | no binding (tested: 50 nM)
MYT13310 (antibody, V domains shown, Full-length IgG from Expi293 supernatant; also called hu7E6SVG heavy chain and light chain pairing variant) VH: QVQLQESGPGLVKPSETLSLTCTVSGGSISSYGVHWIRQPPGKGLEWIGVIWTSGVTDYNSALMGRVTISVDTSKNQFSLKLSSVTAADTAVYYCARDGDYDRYTHDYWGQGTLVTVSS VL: DIVMTQSPDSLAVSLGERATINCRASKSVSTSGYSYMHWYQQKPGQPPKLLIYLASNLHSGVPDRFSGSGSGTDFTLTISSLQAEDVAVYYCQASRELPYTFGQGTKLEIK | no binding (tested: 50 nM)
MYT13315 (antibody, V domains shown, Full-length IgG from Expi293 supernatant; also called hu7E6SVG heavy chain and light chain pairing variant) VH: QVQLQESGPGLVKPSETLSLTCTVSGGSISSYGVHWIRQPPGKGLEWIGVIWTSGVTDYNSALMGRVTISVDTSKNQFSLKLSSVTAADTAVYYCARDGDYDRYTHDYWGQGTLVTVSS VL: DIVMTQSPDSLAVSLGERATINCRASKSVSTSGYSYMHWYQQKPGQPPKLLIYLASNLHSGVPDRFSGSGSGTDFTLTISSLQAEDVAVYYCQHSRELPYHFGQGTKLEIK | no binding (tested: 50 nM)

What follows are binders tested against T2, TROP2 on TROP2-positive NCI-H1975 cells (human, UniProt P09758 27-323) (assay: cell-based or functional assay).
T2 sequence: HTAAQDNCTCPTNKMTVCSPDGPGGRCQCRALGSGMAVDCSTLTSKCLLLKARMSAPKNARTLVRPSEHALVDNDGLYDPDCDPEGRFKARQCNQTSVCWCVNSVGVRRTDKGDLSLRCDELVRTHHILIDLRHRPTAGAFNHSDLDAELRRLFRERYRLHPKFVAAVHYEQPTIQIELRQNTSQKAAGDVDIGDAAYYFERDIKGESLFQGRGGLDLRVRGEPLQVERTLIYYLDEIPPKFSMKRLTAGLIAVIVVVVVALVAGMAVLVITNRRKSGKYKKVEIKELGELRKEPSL

Binder | % efficiency @ 100 nM ADC (cytotoxicity in NCI-H1975 cells) [%]
170-DXd (antibody, IgG1, V domains shown, maleimide based GGFG-DXd conjugated to hinge cysteines, average DAR of about 4) VH: QVQLQESGPGLVKPSETLSLTCTVSGGSISSYGVHWIRQPPGKGLEWIGVIWTSGVTDYNSALMGRVTISVDTSKNQFSLKLSSVTAADTAVYYCARDGDYDRYTMDYWGQGTLVTVSS VL: DIVMTQSPDSLAVSLGERATINCRASKSVSTSGYSYMHWYQQKPGQPPKLLIYLASNLHSGVPDRFSGSGSGTDFTLTISSLQAEDVAVYYCHHSRHLPYTFGQGTKLEIK | 5.39
169-DXd (antibody, IgG1, V domains shown, maleimide based GGFG-DXd conjugated to hinge cysteines, average DAR of about 4) VH: QVQLQESGPGLVKPSETLSLTCTVSGGSISSYGVHWIRQPPGKGLEWIGVIWTSGVTDYNSALMGRVTISVDTSKNQFSLKLSSVTAADTAVYYCARDGDYDRYTMDYWGQGTLVTVSS VL: DIVMTQSPDSLAVSLGERATINCRASKSVSTSGYSYMHWYQQKPGQPPKLLIYLASNLESGVPDRFSGSGSGTDFTLTISSLQAEDVAVYYCQHSRELPYTFGQGTKLEIK | -3.5
112-DXd (antibody, IgG1, V domains shown, maleimide based GGFG-DXd conjugated to hinge cysteines, average DAR of about 4) VH: QVQLVQSGAEVKKPGASVKVSCKASGYTFTTAGMQWVRQAPGQGLEWMGWINTHSGVPKYAEDFKGRVTISADTSTSTAYLQLSSLKSEDTAVYYCARSGFGSSYWYFDVWGQGTLVTVSS VL: DIQMTQSPSSLSASVGDRVTITCKASQDVSTAVAWYQQKPGKAPKLLIYSASYRYTGVPSRFSGSGSGTDFTLTISSLQPEDFAVYYCQQHYITPLTFGQGTKLEIK | -1.22
